This is an account of results in PMC7337520, “NF90 modulates processing of a subset of human pri-miRNAs”.

For series [1], the target named is T1, NF90 (UniProt Q12906-2 1-702).
T1 sequence: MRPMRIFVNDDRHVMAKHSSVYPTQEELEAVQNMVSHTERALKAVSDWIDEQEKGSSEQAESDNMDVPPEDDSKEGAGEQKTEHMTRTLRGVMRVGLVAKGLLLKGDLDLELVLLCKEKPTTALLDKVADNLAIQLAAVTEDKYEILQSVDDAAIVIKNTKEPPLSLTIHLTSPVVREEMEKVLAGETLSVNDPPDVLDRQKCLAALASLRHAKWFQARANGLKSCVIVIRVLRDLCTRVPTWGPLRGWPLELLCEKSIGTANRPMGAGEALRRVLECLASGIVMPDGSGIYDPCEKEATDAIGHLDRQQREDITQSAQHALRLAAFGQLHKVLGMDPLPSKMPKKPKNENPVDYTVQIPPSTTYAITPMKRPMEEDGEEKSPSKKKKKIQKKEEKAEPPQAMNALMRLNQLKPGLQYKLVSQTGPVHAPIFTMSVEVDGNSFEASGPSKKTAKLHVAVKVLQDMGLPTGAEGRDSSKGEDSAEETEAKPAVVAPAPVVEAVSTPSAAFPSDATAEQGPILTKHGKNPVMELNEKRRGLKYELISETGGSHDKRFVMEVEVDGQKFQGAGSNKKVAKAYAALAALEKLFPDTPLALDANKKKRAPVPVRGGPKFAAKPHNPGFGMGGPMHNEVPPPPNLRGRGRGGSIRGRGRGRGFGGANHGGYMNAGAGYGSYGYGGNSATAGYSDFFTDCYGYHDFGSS
Nature of the series: EMSA; RNA EMSA as in ref 15; buffer, salt, pH and temperature not given; at least three replicates. The following applies: protein: recombinant; label: radiolabel; hairpin. (In EMSA bound probe runs differently from free probe, usually more slowly.)

Series [2] concerns the target T1, NF90. As to the kind of experiment: EMSA; enhanced vs WT; band intensities only in figure; RNA EMSA as in ref 15; buffer, salt, pH and temperature not given; at least three replicates. The following applies: protein: recombinant; label: radiolabel; hairpin.

B1: pri-miR-186 WT (structured_RNA)
RNA: ACAGAACACCCAUCAUAUUCUUCCCAAACAUUUUUUCAUUGCUUGUAACUUUCCAAAGAAUUCUCCUUUUGGGCUUUCUGGUUUUAUUUUAAGCCCAAAGGUGAAUUUUUUGGGAAGUUUGAGCUAAAUUCCUUCAACCAAAAUAUACAAGUGAAGAAAAAAAAUUUGUAUUUAAACAUUUGCACAUUUACUUCUACCUGAAGCAUGUGAAUGUCAAC
For B1, the binding result with NF90 [1] is reported as “binds”.

B2: pri-miR-3173 WT (structured_RNA)
RNA: CAUUGGAGGUCUAGGGCUUAUUUUCCAGAUAGAAUUGAGUCUUUGUUGGUCUUGGGCCAGCUUCCCUGCCCUGCCUGUUUUCUCCUUUGUGAUUUUAUGAGAACAAAGGAGGAAAUAGGCAGGCCAGGGAAACGAUCUCUCUCCCUCUCUUGUGCCGAGGAAGAACU
As for B2, in the series with NF90 [1], the binding result is “binds”.

B3: pri-miR-200a mutant #1 (structured_RNA)
RNA: CUGGCUGCUCACCGCUCCGGUUCUUCCCUGGGCUUCCACAGCAGCCCCUGCCUGCCUGGCGGGACCCCACGUCCCUCCCGGGCCCCUGUGAGCAUCUUACCGGACAGUGCUGGAUUUCCCAGCCUGUCUGGUAACGAUGUUCAAAGGUGACCCGCCGCUCGCCGGGGACACCACCGAGGCACAUC
On to B3, for which, in the series with NF90 [2], the binding result is recorded as “binds”.
